Data published in patent US20260242735A1 (UNIVERSIT T BASEL, published 2026).
Blank lines part the entries; values can stand above or below the binder they belong to.

Columns and labels:
Assay in all cases: alanine scan, flow cytometry, HEK293-T;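 note: antibody binding to each alanine-substituted CD33 mutant expressed transiently in HEK293-T, read as fluorescence minus background, mean of duplicates, relative to wild-type CD33 set as 100%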
[1] = molecular target: human CD33 K250A (human, UniProt P20138 18-364)
[2] = molecular target: human CD33 V257A (human, UniProt P20138 18-364)
[3] = molecular target: human CD33 I262A (human, UniProt P20138 18-364)
[4] = molecular target: human CD33 G263A (human, UniProt P20138 18-364)
[5] = molecular target: human CD33 T268A (human, UniProt P20138 18-364)
[6] = molecular target: human CD33 L270A (human, UniProt P20138 18-364)
[7] = molecular target: human CD33 L271A (human, UniProt P20138 18-364)
[8] = molecular target: human CD33 C274A (human, UniProt P20138 18-364)
[9] = molecular target: human CD33 V282A (human, UniProt P20138 18-364)
[10] = molecular target: human CD33 T284A (human, UniProt P20138 18-364)
[11] = molecular target: human CD33 V294A (human, UniProt P20138 18-364)
[12] = molecular target: human CD33 R296A (human, UniProt P20138 18-364)
[13] = molecular target: human CD33 N297A (human, UniProt P20138 18-364)
[14] = molecular target: human CD33 P244A (human, UniProt P20138 18-364)
[15] = molecular target: human CD33 D298A (human, UniProt P20138 18-364)
[16] = molecular target: human CD33 T299A (human, UniProt P20138 18-364)
[17] = molecular target: human CD33 T303A (human, UniProt P20138 18-364)
[18] = molecular target: human CD33 H310A (human, UniProt P20138 18-364)
[19] = molecular target: human CD33 K312A (human, UniProt P20138 18-364)
human CD33 K312A, sequence (P20138 18-364 K312A limits assumed): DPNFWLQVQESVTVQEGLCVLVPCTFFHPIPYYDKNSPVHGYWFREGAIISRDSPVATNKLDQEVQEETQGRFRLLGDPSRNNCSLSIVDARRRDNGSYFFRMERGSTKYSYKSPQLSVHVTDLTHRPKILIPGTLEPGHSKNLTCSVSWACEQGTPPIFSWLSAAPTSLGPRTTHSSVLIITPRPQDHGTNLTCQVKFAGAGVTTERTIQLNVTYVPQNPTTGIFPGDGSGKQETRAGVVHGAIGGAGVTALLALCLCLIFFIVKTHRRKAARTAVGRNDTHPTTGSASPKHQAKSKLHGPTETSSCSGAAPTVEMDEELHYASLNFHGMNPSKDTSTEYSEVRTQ

human CD33 T284A, sequence (P20138 18-364 T284A limits assumed): as the sequence (P20138 18-364 K312A limits assumed) above, with T267A, A295K counted along it
human CD33 H310A, sequence (P20138 18-364 H310A limits assumed): as the sequence (P20138 18-364 K312A limits assumed) above, with H293A, A295K counted along it
human CD33 V294A, sequence (P20138 18-364 V294A limits assumed): as the sequence (P20138 18-364 K312A limits assumed) above, with V277A, A295K counted along it
human CD33 L271A, sequence (P20138 18-364 L271A limits assumed): as the sequence (P20138 18-364 K312A limits assumed) above, with L254A, A295K counted along it
human CD33 D298A, sequence (P20138 18-364 D298A limits assumed): as the sequence (P20138 18-364 K312A limits assumed) above, with D281A, A295K counted along it
human CD33 V282A, sequence (P20138 18-364 V282A limits assumed): as the sequence (P20138 18-364 K312A limits assumed) above, with V265A, A295K counted along it
human CD33 T299A, sequence (P20138 18-364 T299A limits assumed): as the sequence (P20138 18-364 K312A limits assumed) above, with T282A, A295K counted along it
human CD33 G263A, sequence (P20138 18-364 G263A limits assumed): as the sequence (P20138 18-364 K312A limits assumed) above, with G246A, A295K counted along it
human CD33 I262A, sequence (P20138 18-364 I262A limits assumed): as the sequence (P20138 18-364 K312A limits assumed) above, with I245A, A295K counted along it
human CD33 K250A, sequence (P20138 18-364 K250A limits assumed): as the sequence (P20138 18-364 K312A limits assumed) above, with K233A, A295K counted along it
human CD33 P244A, sequence (P20138 18-364 P244A limits assumed): as the sequence (P20138 18-364 K312A limits assumed) above, with P227A, A295K counted along it
human CD33 V257A, sequence (P20138 18-364 V257A limits assumed): as the sequence (P20138 18-364 K312A limits assumed) above, with V240A, A295K counted along it
human CD33 R296A, sequence (P20138 18-364 R296A limits assumed): as the sequence (P20138 18-364 K312A limits assumed) above, with R279A, A295K counted along it
human CD33 C274A, sequence (P20138 18-364 C274A limits assumed): as the sequence (P20138 18-364 K312A limits assumed) above, with C257A, A295K counted along it
human CD33 L270A, sequence (P20138 18-364 L270A limits assumed): as the sequence (P20138 18-364 K312A limits assumed) above, with L253A, A295K counted along it
human CD33 T303A, sequence (P20138 18-364 T303A limits assumed): as the sequence (P20138 18-364 K312A limits assumed) above, with T286A, A295K counted along it
human CD33 T268A, sequence (P20138 18-364 T268A limits assumed): as the sequence (P20138 18-364 K312A limits assumed) above, with T251A, A295K counted along it
human CD33 N297A, sequence (P20138 18-364 N297A limits assumed): as the sequence (P20138 18-364 K312A limits assumed) above, with N280A, A295K counted along it

- Mean % WT Binding [1]: 106 % WT binding
- Mean % WT Binding [2]: 110 % WT binding
- Mean % WT Binding [3]: 111 % WT binding
- Mean % WT Binding [4]: 99.9 % WT binding
- Mean % WT Binding [5]: 100 % WT binding
- Mean % WT Binding [6]: 97.3 % WT binding
- Mean % WT Binding [7]: 113 % WT binding
- Mean % WT Binding [8]: 103 % WT binding
- Mean % WT Binding [9]: 111 % WT binding
- Mean % WT Binding [10]: 111 % WT binding
- Mean % WT Binding [11]: 97.8 % WT binding
- Mean % WT Binding [12]: 106 % WT binding
- Mean % WT Binding [13]: 88.9 % WT binding
- Mean % WT Binding [14]: 100 % WT binding
- Mean % WT Binding [15]: 83.9 % WT binding
- Mean % WT Binding [16]: 92.9 % WT binding
- Mean % WT Binding [17]: 81.2 % WT binding
- Mean % WT Binding [18]: 94.3 % WT binding
- Mean % WT Binding [19]: 98.9 % WT binding
B1: Refmab #4 (antibody, V domains shown)
VH: QVQLVQSGAEVKKPGESVKVSCKASGYTFTNYGMNWVKQAPGQGLEWMGWINTYTGEPTYADKFQGRVTMTTDTSTSTAYMEIRNLGGDDTAVYYCARWSWSDGYYVYFDYWGQGTSVTVSS
VL: DIVMTQSPDSLTVSLGERTTINCKSSQSVLDSSTNKNSLAWYQQKPGQPPKLLLSWASTRESGIPDRFSGSGSGTDFTLTIDSPQPEDSATYYCQQSAHFPITFGQGTRLEIK
notes: The alanine scan used IgG or Fab

- Mean % WT Binding [1]: 146 % WT binding
- Mean % WT Binding [2]: 89 % WT binding
- Mean % WT Binding [3]: 130 % WT binding
- Mean % WT Binding [4]: 116 % WT binding
- Mean % WT Binding [5]: 91.5 % WT binding
- Mean % WT Binding [6]: 125 % WT binding
- Mean % WT Binding [7]: 135 % WT binding
- Mean % WT Binding [8]: 111 % WT binding
- Mean % WT Binding [9]: 73.2 % WT binding
- Mean % WT Binding [10]: 83.2 % WT binding
- Mean % WT Binding [11]: 95.8 % WT binding
- Mean % WT Binding [12]: 92.9 % WT binding
- Mean % WT Binding [13]: 133 % WT binding
- Mean % WT Binding [14]: 138 % WT binding
- Mean % WT Binding [15]: 80.1 % WT binding
- Mean % WT Binding [16]: 85.6 % WT binding
- Mean % WT Binding [17]: 72.7 % WT binding
- Mean % WT Binding [18]: 101 % WT binding
- Mean % WT Binding [19]: 99.6 % WT binding
B2: Refmab #3 (antibody, V domains shown)
VH: QVQLVQSGAEVKKPGSSVKVSCKASGYTFTDYNMHWVRQAPGQGLEWIGYIYPYNGGTGYNQKFKSKATITADESTNTAYMELSSLRSEDTAVYYCARGRPAMDYWGQGTLVTVSS
VL: DIQMTQSPSSLSASVGDRVTITCRASESVDNYGISFMNWFQQKPGKAPKLLIYAASNQGSGVPSRFSGSGSGTDFTLTISSLQPDDFATYYCQQSKEVPWTFGQGTKVEIK
notes: as for B1
